Measured values: the supplement of paper PMC10567573

B1: JUNB (parent)
chain: FVKALDDLHKMNHVTPPNVSLGAT

Variants of: B1
Assay: protein stability index of a GFP-peptide fusion (GPS, HEK-293T) (PSI 1-6); higher = more stable
Settings: c terminus: a fixed tail appended
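Further: lentivirally expressed fusions sorted by FACS into six bins by GFP to DsRed ratio, PSI derived from sequencing read proportions per bin multiplied by bin number.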

Protein stability index of substitutions, site by site:
D7: H 3.12, T 2.16, N 1.96, R 1.93, M 2.62, G 1.98, C 2.15, A 1.69, E 1.57, P 3.02, W 2.24, I 2.48, F 2.71
L21: Y 1.52, N 1.89, S 2.25, A 2.17, R 2.15, I 1.9, K 2.44, T 1.78, G 2.54, Q 2.36, H 1.74, E 2.9, P 1.96, W 1.95
V19: M 1.82, K 1.39, W 3.57, T 1.56, D 1.94, L 1.69, Q 1.79, Y 1.47, E 1.67, R 1.9, H 2.41, I 1.82, G 1.49, P 1.44, A 1.77
M11: N 2.01, D 2.29, S 2.11, W 2.23, F 2.6, Q 2.63, P 1.4, G 1.61, K 1.83, Y 1.29, R 2.28, A 2.29, H 1.94, L 1.7, I 2.26, V 1.7
T24: M 1.81, S 2, I 1.92, C 1.33, A 1.51, L 1.66, N 1.6, H 1.83, K 1.75, Y 1.62, R 1.33, E 2.52, F 2.66, D 1.86, Q 1.83, V 2.46
S20: P 2.12, H 1.81, C 1.83, Y 3.04, F 1.39, M 1.64, G 2.46, V 1.77, W 3.23, R 2.33, K 2.81, Q 1.7, N 1.96
A4: N 1.66, H 2.03, R 1.61, T 2.34, L 2.69, Y 2.85, F 1.15, D 2.24, E 2.13, M 1.58, P 2.6, K 1.58, W 3.85, Q 1.94, C 1.63, G 2.68
N12: G 2.49, I 1.67, T 1.8, V 1.67, L 3.23, H 2.57, Q 1.58, K 1.55, F 1.74, S 2.12, D 1.61, A 2.14, C 2.34
F1: S 4.09, H 4, R 4.38, G 4.05, E 4.27, T 4.37, P 4.57, A 4.1, L 3.29, V 3.59
V2: L 2.79, P 3.05, E 3.98, R 3.54, H 3.07, Y 2.51, W 2.47, F 2.03, C 2.96, K 3.07, M 2.7, I 2.22
V14: K 1.53, H 1.78, F 1.8, N 1.89, Q 2.26, D 1.87, G 2.37, I 1.82, C 2.3, P 1.46, Y 1.19, M 1.51, W 2.7, E 1.93
D6: G 2.07, H 1.57, Q 1.34, Y 4.17, W 3.45, R 1.59, K 2.39, P 2.08, T 1.88, N 2.83, M 2.54, A 2, F 3.31
N18: W 2.86, A 1.32, Y 1.73, S 2.61, M 2.5, H 1.62, E 1.62, D 1.73, Q 2.49, C 1.69, L 1.93, F 2.41
H9: L 1.44, I 1.29, F 3.03, P 1.69, R 1.66, T 2.15, V 1.79, S 2.57, A 1.86, M 2.64, D 2.05
K10: Y 2.63, N 2.07, E 2.98, W 4.58, A 2.79, I 2.35, G 1.5, C 1.64, H 2.13, Q 1.95, F 1.6, P 2.61, M 1.72, L 1.72, T 2.21
T15: K 2.09, W 1.51, F 1.69, H 2.12, R 2.24, V 1.6, G 2.04, E 1.45, L 2.03, A 2.79, I 1.59, Q 2.06, C 2.06, P 2.18
P17: G 1.56, Y 3.73, M 2.35, D 1.97, R 1.44, Q 2.21, N 1.8, E 1.48, V 1.71, S 1.83, F 2.56, K 2.64, W 3.22, C 2.08, H 1.89, L 1.37, A 1.89
K3: L 1.66, S 2.72, R 1.76, Y 1.73, N 1.86, C 3.29, A 1.69, H 2.23, T 2.02, D 2.23, F 3.15, W 2.47, Q 1.94, G 2.12, P 2.97
L5: V 1.86, K 2.27, I 1.75, P 2.2, N 2.38, S 1.72, G 1.99, E 3.33, Q 2.08, D 2.72, M 1.93, R 1.62
P16: F 2.55, N 1.14, A 1.94, Y 1.64, G 1.9, M 1.68, V 1.86, C 2.48, R 1.6, W 1.92, E 2.55, D 1.76, Q 2.11, K 1.79
L8: H 2.26, I 2.64, T 2.46, S 2.39, M 1.62, P 2.31, V 1.74, Q 1.68, D 1.86, Y 1.52, G 2.26, A 1.51, K 2.3
H13: M 2.06, T 2.75, A 1.92, Y 1.6, K 1.74, F 2.17, V 1.75, S 1.2, G 1.91, N 1.54, P 1.75, I 2.22, Q 2.08, D 1.92, E 3.33
A23: W 1.72, Q 1.46, R 2.39, Y 1.65, S 2.05, P 2.46, K 2.06, E 2.17, T 1.31, M 1.85, C 2.16, L 2.73, D 2.11, H 1.71, I 1.77
G22: R 1.2, Q 2.66, T 1.82, F 2.48, D 2.43, S 2.16, K 1.46, A 1.85, Y 1.24, M 1.72, V 2.27, P 2.15, E 2.12, H 1.54, I 2.41, L 2.5
